The values below come from the nanobody polyreactivity screen of Harvey et al. (2022).

The nature of the series: yeast display, Sf9 membrane polyspecificity reagent, FACS + sequencing; frameworks hold sequencing errors. In short, it runs like this:
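In a synthetic yeast display library (Saccharomyces cerevisiae BJ5465), nanobody expression was induced with galactose for 36–48 hours. FACS gates were set low and high (top ~1%) using anti-HA fluorescence for expression and streptavidin fluorescence for binding of the Sf9 membrane reagent. Each polyreactivity label is drawn from the gate of origin.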
“QVQLVESGGGLVQAGGSLRLSCAACGFTIRRYAKGWYRQAPGKERELVAAITTGGSTYYADSVKGRFTISRDNAKNTVYFQMNSLKPEETAVYDCAALYPYKQYRLGYDSWGQGTQVTVSS”: the “polyreactivity (PSR sort gate)” value is reported as “high polyreactivity”.
The entry for “QVQLVESGGGLVQAGGSLRLSCAACGIIFVYYAMGWYRQAPGKERELVAAISSSGARTYYADSVKGRFTISRDNAKNTVYLQMNSLKPEDTAVYYCAARETRTKPIFYGYNYWGQGTQVTVSS” is “high polyreactivity”; for “QVQLVESGGGLVQAGGSLRLSCAACGLTYNANAMGWYRQAPGKERELVAAIDWIGGSTYYADSVKGRFTISRDNAKNTVYLQMNSLKPEDTAVYYCASRSKRRNYDYWGQGTQVTVSS” it is “high polyreactivity”; for “QVQLVESGGGLVQAGGSLRLSCAACGRIFSYNAMGWYRQAPGKERELVAAIRWRGGSTYYADSVKGRFTISRDNAKNTVYLQMNRLKPEDTAVYYCNALRYYHYDYWGQGTQVTVSS” it is “high polyreactivity”.
Take “QVQLVESGGGLVQAGGSLRLSCAACGRPFTLYAMGWYRQAPGKERELVASITSGTRTYYADSVKGRFTISRDNAKNTVYLQMNSLKPEDTAVYYCAKEGYRRTLHRLYDYWGEGTQVTVSS”: the “polyreactivity (PSR sort gate)” value is listed as “low polyreactivity”.
The value for “QVQLVESGGGLVQAGGSLRLSCAACGSIFRPNAMGWYRQAPGKERELVAAITWIAGGTYYADSVKGRFTISRDNAKNTVYLEMNSLKPEDTAVYYCAARWYFQTAVGRYYHYDYWGQGTQVTVSS” was “high polyreactivity”.
The value for “QVQLVESGGGLVQAGGSLRLSCAACGSTFGYNAMGWYRQAPGKERELVADISWSGGTTYYADSVKGRFTISRDNAKNTVYLQMNSLKPEDTAVYYCNARYPDRPVQGWRVEVDYWGQGTQVTVSS” was “high polyreactivity”.
The entry for “QVQLVESGGGLVQAGGSLRLSCAACGYSFPAYAMGWYRQAPGKERELVAAINRRGGTTYYADSVKGRFTISRDNAKNTVYLQMNSLKPEDTAVYYCARYSGLKDMDYWGQGTQVSVSS” is “high polyreactivity”; for “QVQLVESGGGLVQAGGSLRLSCAAPGIIFVDYTMGWYRQAPGKERELVAAIDWSGGSTYYADSVKGRFTISRDNAKNTVYLQMNSLKPEDTAVYYCAALKTTYIYSSDFDYWGQGTQVTVSS” it is “low polyreactivity”; for “QVQLVESGGGLVQAGGSLRLSCAAPGSIFPRYAMGWYRPAPGKERELVAAISRSGGSTYYADSVKGRFTISRDNAKNTVYLQMNSLKPEDTAVYYCATDKVSHRRYDYWGQGTQVTVSS” it is “high polyreactivity”.
“QVQLVESGGGLVQAGGSLRLSCAAPGSTFQFNVMGWYRQAPGKERELVAAITSGASTYYADSVKGRFTISRDNAKNTVYLQMYSLEPEDTAVYYCAVDYSFLYDYVQRYYYWGQGTQVTVSS”: the “polyreactivity (PSR sort gate)” value was “high polyreactivity”.
The entry for “QVQLVESGGGLVQAGGSLRLSCAASACTFNVNAMGWYRQEAGKERELVAAITNGGITNYADSVKGRFTISRDNAKNTVYLQMNSLKPEDTAVYDCAARTIYKTQSPRPFRRGYWGQGTQVTVSS” is “high polyreactivity”; for “QVQLVESGGGLVQAGGSLRLSCAASAFIFGRYVMGWYIQAPGKEREVVAAISWSGGRTYYADSVKGRFTISRDNAKNTVYLQMNSLKPEDTAVYYCAAESSYPSYDGYYWGQGTQVTVSS” it is “high polyreactivity”.
The value for “QVQLVESGGGLVQAGGSLRLSCAASAFILASYPMGWNRQAPGKERELVAAITKRGGSTYYADSVKGRFTISRDNAKNTVFLQMNSLKPEDTAVYFCATYSSTVLPRWKYYYWGQGTQVPVSS” was “high polyreactivity”.
In the case of “QVQLVESGGGLVQAGGSLRLSCAASAFILDWNTIGWYRQAPRKEREFVAAITSRGGDTYYADSVKGRFTISRDNAKNTDYFQMNSMKPEDTAVYYWNKGFKLWPRYGYDYWGLGTQVTVSS”, the “polyreactivity (PSR sort gate)” value is “low polyreactivity”.
For “QVQLVESGGGLVQAGGSLRLSCAASAFILYRNAMGWYRQAPGKERELVAAITWNGDRTHYADSVMGRFTISRDNAKNTVYLQMNSLKPEDNAVYYCAAYYVSVRGGRYRNKWYDHWGQGTQVTVSS”, the “polyreactivity (PSR sort gate)” value was “high polyreactivity”.
For “QVQLVESGGGLVQAGGSLRLSCAASALTFGSNAMGWYRQAPGKERELVAAISRSGGTTYYADSVKGRFTISRDNAKNTVYLQMNSLKPEDTAVYYCATRPYSPWRHYYWGQGTQVTVSS”, the “polyreactivity (PSR sort gate)” value was “high polyreactivity”.
The value for “QVQLVESGGGLVQAGGSLRLSCAASARIFIVNAMGWYRQAPGKDREFVAANTSRGGITYYADSVKGRFTISRDNAKNTVYLQMNSLKPEDTAVYYCAAGYITCGSGNWVVTPYDYWGQGTQVTVSS” was “high polyreactivity”.
The value for “QVQLVESGGGLVQAGGSLRLSCAASARIFTAYAMGWYRQAPGKERELVASISTSGGRTYYADSVKGRFTISRDNAKNTVYLQINSLKPEDTAVYYFAADFESYSRYYDGYDYWGQGTQVTVSS” was “high polyreactivity”.
The entry for “QVQLVESGGGLVQAGGSLRLSCAASARIVRKYTMGWFRQAPGKERELVAAISRNGGDTYYADSVKGRFTISRDNAKNTVYLQMHSLKPEDTAVYYCNARTPTDSTHFDYWGQGTQVTVSS” is “low polyreactivity”.
Regarding “QVQLVESGGGLVQAGGSLRLSCAASARTFRQYAMGWYRQSPGKERELVAAIRTNGGRTYYADSVKGRFTISRDNAKNTVYLQMNSLKPEDTAVYYCAVRPRPGYYYWGQGTQVTVSS”, the “polyreactivity (PSR sort gate)” value is reported as “high polyreactivity”.
For “QVQLVESGGGLVQAGGSLRLSCAASARTFYYYAMGWYRQAPGKERELVAAISWSGGRTYYADSVKGRFTISRDNAKNTVYLQMNSLKPEDTAVYYFAVPYPAEGYGGDYWGQGTQVTVSS”, the “polyreactivity (PSR sort gate)” value was “low polyreactivity”.
As to “QVQLVESGGGLVQAGGSLRLSCAASASIFDDNAMGWYRQAPGKERELVAGISRGGSTNYADSVKGRFTISRDNAKNTVYLQMNSLKPEDTAVYYCNKRYKPSWTTYDYWGQGTQVTVSS”, the “polyreactivity (PSR sort gate)” value is reported as “low polyreactivity”.
The entry for “QVQLVESGGGLVQAGGSLRLSCAASASIFDGYAMGWYRQAPGKERELVAAISKGGTRTYYADSVKGRFTISRDNAKNTVYLQMNSLKPEDSSVYYCNAYYRREPDDGDYDYWGQGTQVTVSS” is “high polyreactivity”; for “QVQLVESGGGLVQAGGSLRLSCAASASTFWFNVMGWYRQATGKETELDAVITWTGGSTSYADSVKGRFTISRDNAKNTVYLQMNSLKPEDTAVYYCATPVKFGGVPYRYGYWGQGTQVTVSS” it is “low polyreactivity”; for “QVQLVESGGGLVQAGGSLRLSCAASAYILFKYAKGSYRQAPGKERELVAGITRGGTTYYADSVKGRFTISRDNAKNTVYLQMNSLKPEDTAVYYCAVAITFSSYKFYYWGQGTQVTVSS” it is “high polyreactivity”.
“QVQLVESGGGLVQAGGSLRLSCAASAYNFDGYAMGWYRQAPGKERELVAAINSGGGTYYADSVKGRFTISRDNAKNTVYLQMNSLKPEDTAVYYCAKYTYDYWGQGTQVTVSS”: the “polyreactivity (PSR sort gate)” value is on record as “low polyreactivity”.
As to “QVQLVESGGGLVQAGGSLRLSCAASGATFAQYAMGWYRQAPGKERELVAAISRGGGSTYCADSVKGRFTISRDNAKNTVYLQMNSLKPEDTAVYYCAADPRYRVTLGFDYWGQGSQVTVSS”, the “polyreactivity (PSR sort gate)” value is “high polyreactivity”.
In the case of “QVQLVESGGGLVQAGGSLRLSCAASGATFYVYAMGWYRQAPGKERELVAAIRYRGGTTHYADSVKGRFTISRDNAKNTVYVQMNSLKPEDTAVYYCAADGYVYRSGRRYDYWGQGTQVTVSS”, the “polyreactivity (PSR sort gate)” value is recorded as “high polyreactivity”.
The entry for “QVQLVESGGGLVQAGGSLRLSCAASGCTFKYYTMGWYRQAPGKERELGAAINWRGGTTYYADSVKGRFTISRDNAKNTVYLQMNSLKPEDTAVYYSAKVNGPYRGGGYSRFDYWGQGTQVTVST” is “high polyreactivity”; for “QVQLVESGGGLVQAGGSLRLSCAASGFAFSHYAMGWYRQAPGKERELVAAISWGGGSTYYADSVKGRFTISRDNAKNTVYLQMNSLRPEDTAVYYCAASIWLRYHWGYDYWGQGTQVTVSS” it is “high polyreactivity”; for “QVQLVESGGGLVQAGGSLRLSCAASGFAFSYYAMGWYRQAPGKEREFVASIDWSGGSTYYADSVKGRFTISRDNAKNTVFLQMNSLKPEDTAVYYCAAELDYFPGYDYWGQGTQVTVSS” it is “low polyreactivity”.
Consider “QVQLVESGGGLVQAGGSLRLSCAASGFFFEINAMGWYRQAPGKERELVAVITNSGGSTYYADSVKGRFTISRDNAKNTVYLQMNSLKPEDTAVYYCAADAVHYTNDWYDYWGQGTQVTVSS”, for which the “polyreactivity (PSR sort gate)” value was “low polyreactivity”.
The entry for “QVQLVESGGGLVQAGGSLRLSCAASGFFFSHYAMGWYRQAPGKERVFVATISKRGGSTTYADSVKGRFTISRDNAKNTVYLQMNSLKPEDTAVYYCAATYYRFPSLIAYVRYDYWGQGTQVTVSS” is “high polyreactivity”; for “QVQLVESGGGLVQAGGSLRLSCAASGFIDYDNAMGWYRQAPGKERELVAAITSGGSTYYADSVKGRFTISRDNAKNTVYLQMNSLKPEDTAVYYCARESGYRAYEIQFYYWGQGTQVTVSS” it is “high polyreactivity”.
Consider “QVQLVESGGGLVQAGGSLRLSCAASGFIFAANAMGWYRQAPGKEMELVARIRSTGRTSYADSVKGRFTISRDNAKNTVYLQMNSLKPEDTAVYYCATDYYRYRDYAYYWLDYNYWGQGTQVTVSS”, for which the “polyreactivity (PSR sort gate)” value is listed as “high polyreactivity”.
As to “QVQLVESGGGLVQAGGSLRLSCAASGFIFADYAMGWYRQAPGKERELVAAITGRGTSTYYEDSVKGRFTISRDNAKNTVYLQMNSLKPEDTAVYLCAAAGTYYRHYKGYYRHLDYWGQGTQVTVSS”, the “polyreactivity (PSR sort gate)” value is given as “high polyreactivity”.
Take “QVQLVESGGGLVQAGGSLRLSCAASGFIFAEYAMGWSRQAPGQEREFVATINIGGSTYYADSVKGRFTISRDNAKNTVYLQMNSLKPEDTAVYYCAAEFWWGDGSQGIYDYDYWGQGTQVTVSS”: the “polyreactivity (PSR sort gate)” value is reported as “low polyreactivity”.
“QVQLVESGGGLVQAGGSLRLSCAASGFIFAFYDIGWYRQAPGKERELVAAISWGGSTYYADSVKGRFTISRDNAKNTVYLQMNSLKPEDTAVYYCAARLSRSYRYGYWGQGTQVTVSS”: the “polyreactivity (PSR sort gate)” value is “high polyreactivity”.
As for “QVQLVESGGGLVQAGGSLRLSCAASGFIFAGNAMGWYRQAPGKERELVAAISGSGGSTYYADSVKGRFTISRDNAKNTVYLQMNSLKPEDTAVYYCNAVYYRYYDVEGFDYWGQGTQVTVSS”, the “polyreactivity (PSR sort gate)” value is “high polyreactivity”.
